Test results reported in paper PMC7375243, “Structural Basis of Human Helicase DDX21 in RNA Binding, Unwinding, and Antiviral Signal Activation” (Advanced Science, 2020).
Substitutions are numbered along the chain they refer to.

Key:
Details in all cases: protein: recombinant; tags: N-terminal His-SUMO, removed by ULP1; label: FAM; single strand
DDX21 core 4R to A = target: T1, DDX21 core 4R to A (human, UniProt Q9NR30 188-563, R255A;R270A;R318A;R476A); assay: UV crosslinking; reduced by more than half; MST: 50 mM Tris pH 7.5, 50 mM KCl, 2 mM MgCl2, 1 mM TCEP, 0.01% NP-40, 0.05 mg/mL BSA, 2 mM AMPPNP, 50 nM FAM-RNA; temperature not given; crosslinking buffer not in material
T1 sequence: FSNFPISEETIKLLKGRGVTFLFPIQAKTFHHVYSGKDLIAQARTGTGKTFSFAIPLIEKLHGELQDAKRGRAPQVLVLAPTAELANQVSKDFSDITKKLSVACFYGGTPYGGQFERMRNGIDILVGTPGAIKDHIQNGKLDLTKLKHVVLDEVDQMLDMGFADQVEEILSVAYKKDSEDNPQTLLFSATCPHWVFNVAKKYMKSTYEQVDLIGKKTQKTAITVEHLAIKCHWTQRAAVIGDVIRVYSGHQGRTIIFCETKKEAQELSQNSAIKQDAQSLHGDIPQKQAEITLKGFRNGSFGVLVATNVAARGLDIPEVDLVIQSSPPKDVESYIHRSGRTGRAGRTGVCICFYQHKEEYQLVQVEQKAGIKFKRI

DDX21 core 3R to A = target: T2, DDX21 core 3R to A (human, UniProt Q9NR30 188-563, R270A;R318A;R476A); assay: as above
T2 sequence: T1 sequence with A68R

DDX21 core del-loop = target: T3, DDX21 core del-loop (human, UniProt Q9NR30 188-563, del401-405); assay: UV crosslinking; retains more than half; MST: 50 mM Tris pH 7.5, 50 mM KCl, 2 mM MgCl2, 1 mM TCEP, 0.01% NP-40, 0.05 mg/mL BSA, 2 mM AMPPNP, 50 nM FAM-RNA; temperature not given; crosslinking buffer not in material
T3 sequence: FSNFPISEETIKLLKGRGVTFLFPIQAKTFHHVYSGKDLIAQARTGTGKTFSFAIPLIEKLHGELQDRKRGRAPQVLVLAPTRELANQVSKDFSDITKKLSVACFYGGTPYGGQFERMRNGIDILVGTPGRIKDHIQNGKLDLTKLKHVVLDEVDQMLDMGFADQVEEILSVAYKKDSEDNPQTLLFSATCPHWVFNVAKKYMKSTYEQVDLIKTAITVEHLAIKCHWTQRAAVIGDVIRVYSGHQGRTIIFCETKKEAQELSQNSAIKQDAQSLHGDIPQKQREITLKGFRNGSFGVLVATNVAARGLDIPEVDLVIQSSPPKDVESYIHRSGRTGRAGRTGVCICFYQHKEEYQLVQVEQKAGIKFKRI

DDX21 core S375L/A376E = target: T4, DDX21 core S375L/A376E (human, UniProt Q9NR30 188-563, S375L;A376E); assay: UV crosslinking; about half of activity; MST: 50 mM Tris pH 7.5, 50 mM KCl, 2 mM MgCl2, 1 mM TCEP, 0.01% NP-40, 0.05 mg/mL BSA, 2 mM AMPPNP, 50 nM FAM-RNA; temperature not given; crosslinking buffer not in material
T4 sequence: T1 sequence with A68R, A83R, A131R, S188L, A189E, A289R

[1] = target: T5, DDX21 helicase core (D1D2, DDX21-delNC) (human, UniProt Q9NR30 188-563); assay: MST; 2 mM AMPPNP, 2 mM MgCl2; value only in figure; MST: 50 mM Tris pH 7.5, 50 mM KCl, 2 mM MgCl2, 1 mM TCEP, 0.01% NP-40, 0.05 mg/mL BSA, 2 mM AMPPNP, 50 nM FAM-RNA; temperature not given; crosslinking buffer not in material
T5 sequence: T1 sequence with A68R, A83R, A131R, A289R

B1: FAM-U15 (ssRNA)
RNA: UUUUUUUUUUUUUUU
B1 was tested, and the binding signal (DDX21 core 4R to A) was < 50 % of WT, the binding signal (DDX21 core 3R to A) was < 50 % of WT and the binding signal (DDX21 core del-loop) was > 50 % of WT. The binding signal (DDX21 core S375L/A376E) was ~50 % of WT and the binding result [1] was “binds”.
